Experimental data published in the RNAGym collection of RNA variant scans (doi:10.1021/acssynbio.7b00057).

B1: Pistol ribozyme (parent)
chain: GGGUCGUUGUUCCAUAAUCGCGUGGAUAUGGCACGCAAGUUUCUACCGGGCACCGUAAAUGUCCGACUGGAGCCGUUCGGGCGGCUAUAAACAGACCUCAGGCCCGAAGCGUGGCGGCACCUGCCGCCGGUGGUAAAAAAGAUCGGAAGAGCACACGUCU

Variants of: B1
Assay: aptazyme ON/OFF ratio, guanine; higher = stronger switching; co-transcriptional cleavage with and without guanine

Variant	aptazyme ON/OFF ratio
GGGUCGAUAAUACAUAAUCGCGUGGAUAUGGCACGCAAGUUUCUACCGGGCACCGUAAAUGUCCGACUGGAGCCGUUCGGGCGGCUAUAAACAGACCUCAGGCCCGAAGCGUGGCGGCACCUGCCGCCGGUGGUAAAAAAGAUCGGAAGAGCACACGUCU	1.3
GGGUCGAUGUUUCAUAAUCGCGUGGAUAUGGCACGCAAGUUUCUACCGGGCACCGUAAAUGUCCGACUGGAGCCGUUCGGGCGGCUAUAAACAGACCUCAGGCCCGAAGCGUGGCGGCACCUGCCGCCGGUGGUAAAAAAGAUCGGAAGAGCACACGUCU	1.48
GGGUCGAUGUUACAUAAUCGCGUGGAUAUGGCACGCAAGUUUCUACCGGGCACCGUAAAUGUCCGACUGGAGCCGUUCGGGCGGCUAUAAACAGACCUCAGGCCCGAAGCGUGGCGGCACCUGCCGCCGGUGGUAAAAAAGAUCGGAAGAGCACACGUCU	1.54
GGGUCGAUGUUGCAUAAUCGCGUGGAUAUGGCACGCAAGUUUCUACCGGGCACCGUAAAUGUCCGACUGGAGCCGUUCGGGCGGCUAUAAACAGACCUCAGGCCCGAAGCGUGGCGGCACCUGCCGCCGGUGGUAAAAAAGAUCGGAAGAGCACACGUCU	1.44
GGGUCGAUGUUGUAUAAUCGCGUGGAUAUGGCACGCAAGUUUCUACCGGGCACCGUAAAUGUCCGACUGGAGCCGUUCGGGCGGCUAUAAACAGACCUCAGGCCCGAAGCGUGGCGGCACCUGCCGCCGGUGGUAAAAAAGAUCGGAAGAGCACACGUCU	1.27
GGGUCGAUGUUGGAUAAUCGCGUGGAUAUGGCACGCAAGUUUCUACCGGGCACCGUAAAUGUCCGACUGGAGCCGUUCGGGCGGCUAUAAACAGACCUCAGGCCCGAAGCGUGGCGGCACCUGCCGCCGGUGGUAAAAAAGAUCGGAAGAGCACACGUCU	1.26
GGGUCGAUGUUGAAUAAUCGCGUGGAUAUGGCACGCAAGUUUCUACCGGGCACCGUAAAUGUCCGACUGGAGCCGUUCGGGCGGCUAUAAACAGACCUCAGGCCCGAAGCGUGGCGGCACCUGCCGCCGGUGGUAAAAAAGAUCGGAAGAGCACACGUCU	1.38
GGGUCGAUAUUACAUAAUCGCGUGGAUAUGGCACGCAAGUUUCUACCGGGCACCGUAAAUGUCCGACUGGAGCCGUUCGGGCGGCUAUAAACAGACCUCAGGCCCGAAGCGUGGCGGCACCUGCCGCCGGUGGUAAAAAAGAUCGGAAGAGCACACGUCU	2.25
GGGUCGAUAUUGCAUAAUCGCGUGGAUAUGGCACGCAAGUUUCUACCGGGCACCGUAAAUGUCCGACUGGAGCCGUUCGGGCGGCUAUAAACAGACCUCAGGCCCGAAGCGUGGCGGCACCUGCCGCCGGUGGUAAAAAAGAUCGGAAGAGCACACGUCU	2.38
GGGUCGAUAUUUCAUAAUCGCGUGGAUAUGGCACGCAAGUUUCUACCGGGCACCGUAAAUGUCCGACUGGAGCCGUUCGGGCGGCUAUAAACAGACCUCAGGCCCGAAGCGUGGCGGCACCUGCCGCCGGUGGUAAAAAAGAUCGGAAGAGCACACGUCU	2.04
GGGUCGAUGUUUGAUAAUCGCGUGGAUAUGGCACGCAAGUUUCUACCGGGCACCGUAAAUGUCCGACUGGAGCCGUUCGGGCGGCUAUAAACAGACCUCAGGCCCGAAGCGUGGCGGCACCUGCCGCCGGUGGUAAAAAAGAUCGGAAGAGCACACGUCU	1.16
GGGUCGAUGUUUUAUAAUCGCGUGGAUAUGGCACGCAAGUUUCUACCGGGCACCGUAAAUGUCCGACUGGAGCCGUUCGGGCGGCUAUAAACAGACCUCAGGCCCGAAGCGUGGCGGCACCUGCCGCCGGUGGUAAAAAAGAUCGGAAGAGCACACGUCU	1.38
GGGUCGAUGUUUAAUAAUCGCGUGGAUAUGGCACGCAAGUUUCUACCGGGCACCGUAAAUGUCCGACUGGAGCCGUUCGGGCGGCUAUAAACAGACCUCAGGCCCGAAGCGUGGCGGCACCUGCCGCCGGUGGUAAAAAAGAUCGGAAGAGCACACGUCU	1.29
GGGUCGAUAAUAAAUAAUCGCGUGGAUAUGGCACGCAAGUUUCUACCGGGCACCGUAAAUGUCCGACUGGAGCCGUUCGGGCGGCUAUAAACAGACCUCAGGCCCGAAGCGUGGCGGCACCUGCCGCCGGUGGUAAAAAAGAUCGGAAGAGCACACGUCU	1.1
GGGUCGAUAAUAGAUAAUCGCGUGGAUAUGGCACGCAAGUUUCUACCGGGCACCGUAAAUGUCCGACUGGAGCCGUUCGGGCGGCUAUAAACAGACCUCAGGCCCGAAGCGUGGCGGCACCUGCCGCCGGUGGUAAAAAAGAUCGGAAGAGCACACGUCU	1.07
GGGUCGAUAUUCCAUAAUCGCGUGGAUAUGGCACGCAAGUUUCUACCGGGCACCGUAAAUGUCCGACUGGAGCCGUUCGGGCGGCUAUAAACAGACCUCAGGCCCGAAGCGUGGCGGCACCUGCCGCCGGUGGUAAAAAAGAUCGGAAGAGCACACGUCU	1.83
GGGUCGAUGUUAAAUAAUCGCGUGGAUAUGGCACGCAAGUUUCUACCGGGCACCGUAAAUGUCCGACUGGAGCCGUUCGGGCGGCUAUAAACAGACCUCAGGCCCGAAGCGUGGCGGCACCUGCCGCCGGUGGUAAAAAAGAUCGGAAGAGCACACGUCU	1.4
GGGUCGAUGUUAGAUAAUCGCGUGGAUAUGGCACGCAAGUUUCUACCGGGCACCGUAAAUGUCCGACUGGAGCCGUUCGGGCGGCUAUAAACAGACCUCAGGCCCGAAGCGUGGCGGCACCUGCCGCCGGUGGUAAAAAAGAUCGGAAGAGCACACGUCU	1.2

Variant	aptazyme ON/OFF ratio
GGGUCGAUGUUAUAUAAUCGCGUGGAUAUGGCACGCAAGUUUCUACCGGGCACCGUAAAUGUCCGACUGGAGCCGUUCGGGCGGCUAUAAACAGACCUCAGGCCCGAAGCGUGGCGGCACCUGCCGCCGGUGGUAAAAAAGAUCGGAAGAGCACACGUCU	1.22
GGGUCGAUAAUCCAUAAUCGCGUGGAUAUGGCACGCAAGUUUCUACCGGGCACCGUAAAUGUCCGACUGGAGCCGUUCGGGCGGCUAUAAACAGACCUCAGGCCCGAAGCGUGGCGGCACCUGCCGCCGGUGGUAAAAAAGAUCGGAAGAGCACACGUCU	1.52
GGGUCGAUAUUAUAUAAUCGCGUGGAUAUGGCACGCAAGUUUCUACCGGGCACCGUAAAUGUCCGACUGGAGCCGUUCGGGCGGCUAUAAACAGACCUCAGGCCCGAAGCGUGGCGGCACCUGCCGCCGGUGGUAAAAAAGAUCGGAAGAGCACACGUCU	1.37
GGGUCGAUAUUAAAUAAUCGCGUGGAUAUGGCACGCAAGUUUCUACCGGGCACCGUAAAUGUCCGACUGGAGCCGUUCGGGCGGCUAUAAACAGACCUCAGGCCCGAAGCGUGGCGGCACCUGCCGCCGGUGGUAAAAAAGAUCGGAAGAGCACACGUCU	1.13
GGGUCGAUAUUAGAUAAUCGCGUGGAUAUGGCACGCAAGUUUCUACCGGGCACCGUAAAUGUCCGACUGGAGCCGUUCGGGCGGCUAUAAACAGACCUCAGGCCCGAAGCGUGGCGGCACCUGCCGCCGGUGGUAAAAAAGAUCGGAAGAGCACACGUCU	1.13
GGGUCGAUAUUUUAUAAUCGCGUGGAUAUGGCACGCAAGUUUCUACCGGGCACCGUAAAUGUCCGACUGGAGCCGUUCGGGCGGCUAUAAACAGACCUCAGGCCCGAAGCGUGGCGGCACCUGCCGCCGGUGGUAAAAAAGAUCGGAAGAGCACACGUCU	1.21
GGGUCGAUAUUUAAUAAUCGCGUGGAUAUGGCACGCAAGUUUCUACCGGGCACCGUAAAUGUCCGACUGGAGCCGUUCGGGCGGCUAUAAACAGACCUCAGGCCCGAAGCGUGGCGGCACCUGCCGCCGGUGGUAAAAAAGAUCGGAAGAGCACACGUCU	1.04
GGGUCGAUAUUUGAUAAUCGCGUGGAUAUGGCACGCAAGUUUCUACCGGGCACCGUAAAUGUCCGACUGGAGCCGUUCGGGCGGCUAUAAACAGACCUCAGGCCCGAAGCGUGGCGGCACCUGCCGCCGGUGGUAAAAAAGAUCGGAAGAGCACACGUCU	1.17
GGGUCGAUAUUGUAUAAUCGCGUGGAUAUGGCACGCAAGUUUCUACCGGGCACCGUAAAUGUCCGACUGGAGCCGUUCGGGCGGCUAUAAACAGACCUCAGGCCCGAAGCGUGGCGGCACCUGCCGCCGGUGGUAAAAAAGAUCGGAAGAGCACACGUCU	1.17
GGGUCGAUAUUGAAUAAUCGCGUGGAUAUGGCACGCAAGUUUCUACCGGGCACCGUAAAUGUCCGACUGGAGCCGUUCGGGCGGCUAUAAACAGACCUCAGGCCCGAAGCGUGGCGGCACCUGCCGCCGGUGGUAAAAAAGAUCGGAAGAGCACACGUCU	1.12
GGGUCGAUAUUGGAUAAUCGCGUGGAUAUGGCACGCAAGUUUCUACCGGGCACCGUAAAUGUCCGACUGGAGCCGUUCGGGCGGCUAUAAACAGACCUCAGGCCCGAAGCGUGGCGGCACCUGCCGCCGGUGGUAAAAAAGAUCGGAAGAGCACACGUCU	1.24
GGGUCGAUAUUCAAUAAUCGCGUGGAUAUGGCACGCAAGUUUCUACCGGGCACCGUAAAUGUCCGACUGGAGCCGUUCGGGCGGCUAUAAACAGACCUCAGGCCCGAAGCGUGGCGGCACCUGCCGCCGGUGGUAAAAAAGAUCGGAAGAGCACACGUCU	1.24
GGGUCGAUAUUCUAUAAUCGCGUGGAUAUGGCACGCAAGUUUCUACCGGGCACCGUAAAUGUCCGACUGGAGCCGUUCGGGCGGCUAUAAACAGACCUCAGGCCCGAAGCGUGGCGGCACCUGCCGCCGGUGGUAAAAAAGAUCGGAAGAGCACACGUCU	1.32
GGGUCGAUAUUCGAUAAUCGCGUGGAUAUGGCACGCAAGUUUCUACCGGGCACCGUAAAUGUCCGACUGGAGCCGUUCGGGCGGCUAUAAACAGACCUCAGGCCCGAAGCGUGGCGGCACCUGCCGCCGGUGGUAAAAAAGAUCGGAAGAGCACACGUCU	1.06
GGGUCGAUGUUCGAUAAUCGCGUGGAUAUGGCACGCAAGUUUCUACCGGGCACCGUAAAUGUCCGACUGGAGCCGUUCGGGCGGCUAUAAACAGACCUCAGGCCCGAAGCGUGGCGGCACCUGCCGCCGGUGGUAAAAAAGAUCGGAAGAGCACACGUCU	1.11
GGGUCGAUGUUCUAUAAUCGCGUGGAUAUGGCACGCAAGUUUCUACCGGGCACCGUAAAUGUCCGACUGGAGCCGUUCGGGCGGCUAUAAACAGACCUCAGGCCCGAAGCGUGGCGGCACCUGCCGCCGGUGGUAAAAAAGAUCGGAAGAGCACACGUCU	1.58
GGGUCGAUGUUCAAUAAUCGCGUGGAUAUGGCACGCAAGUUUCUACCGGGCACCGUAAAUGUCCGACUGGAGCCGUUCGGGCGGCUAUAAACAGACCUCAGGCCCGAAGCGUGGCGGCACCUGCCGCCGGUGGUAAAAAAGAUCGGAAGAGCACACGUCU	1.47
GGGUCGAUGUUCCAUAAUCGCGUGGAUAUGGCACGCAAGUUUCUACCGGGCACCGUAAAUGUCCGACUGGAGCCGUUCGGGCGGCUAUAAACAGACCUCAGGCCCGAAGCGUGGCGGCACCUGCCGCCGGUGGUAAAAAAGAUCGGAAGAGCACACGUCU	3.28
